The text below walks through data of PMC10776854.

B1: MARCH6-FLAG WT [human] / SQLE [human (endogenous in K562)] (parent)
chain 1: MDTAEEDICRVCRSEGTPEKPLYHPCVCTGSIKFIHQECLVQWLKHSRKEYCELCKHRFAFTPIYSPDMPSRLPIQDIFAGLVTSIGTAIRYWFHYTLVAFAWLGVVPLTACRIYKCLFTGSVSSLLTLPLDMLSTENLLADCLQGCFVVTCTLCAFISLVWLREQIVHGGAPIWLEHAAPPFNAAGHHQNEAPAGGNGAENVAADQPANPPAENAVVGENPDAQDDQAEEEEEDNEEEDDAGVEDAADANNGAQDDMNWNALEWDRAAEELTWERMLGLDGSLVFLEHVFWVVSLNTLFILVFAFCPYHIGHFSLVGLGFEEHVQASHFEGLITTIVGYILLAITLIICHGLATLVKFHRSRRLLGVCYIVVKVSLLVVVEIGVFPLICGWWLDICSLEMFDATLKDRELSFQSAPGTTMFLHWLVGMVYVFYFASFILLLREVLRPGVLWFLRNLNDPDFNPVQEMIHLPIYRHLRRFILSVIVFGSIVLLMLWLPIRIIKSVLPNFLPYNVMLYSDAPVSELSLELLLLQVVLPALLEQGHTRQWLKGLVRAWTVTAGYLLDLHSYLLGDQEENENSANQQVNNNQHARNNNAIPVVGEGLHAAHQAILQQGGPVGFQPYRRPLNFPLRIFLLIVFMCITLLIASLICLTLPVFAGRWLMSFWTGTAKIHELYTAACGLYVCWLTIRAVTVMVAWMPQGRRVIFQKVKEWSLMIMKTLIVAVLLAGVVPLLLGLLFELVIVAPLRVPLDQTPLFYPWQDWALGVLHAKIIAAITLMGPQWWLKTVIEQVYANGIRNIDLHYIVRKLAAPVISVLLLSLCVPYVIASGVVPLLGVTAEMQNLVHRRIYPFLLMVVVLMAILSFQVRQFKRLYEHIKNDKYLVGQRLVNYERKSGKQGSSPPPPQSSQE
chain 2: MWTFLGIATFTYFYKKFGDFITLANREVLLCVLVFLSLGLVLSYRCRHRNGGLLGRQQSGSQFALFSDILSGLPFIGFFWAKSPPESENKEQLEARRRRKGTNISETSLIGTAACTSTSSQNDPEVIIVGAGVLGSALAAVLSRDGRKVTVIERDLKEPDRIVGEFLQPGGYHVLKDLGLGDTVEGLDAQVVNGYMIHDQESKSEVQIPYPLSENNQVQSGRAFHHGRFIMSLRKAAMAEPNAKFIEGVVLQLLEEDDVVMGVQYKDKETGDIKELHAPLTVVADGLFSKFRKSLVSNKVSVSSHFVGFLMKNAPQFKANHAELILANPSPVLIYQISSSETRVLVDIRGEMPRNLREYMVEKIYPQIPDHLKEPFLEATDNSHLRSMPASFLPPSSVKKRGVLLLGDAYNMRHPLTGGGMTVAFKDIKLWRKLLKGIPDLYDDAAIFEAKKSFYWARKTSHSFVVNILAQALYELFSATDDSLHQLRKACFLYFKLGGECVAGPVGLLSVLSPNPLVLIGHFFAVAIYAVYFCFKSEPWITKPRALLSSGAVLYKACSVIFPLIYSEMKYMVH

The variants in this experiment derive from B1. Briefly: FLAG-immunoprecipitation, Western blot densitometry. As to conditions: with SQLE [human (endogenous in K562)], K562 cells expressing MARCH6-FLAG, eight independent biological replicates, parent: 0.55, read off a plot.
For the variant chain 1 Y92V, the response (SQLE/MARCH6 ratio) is 0.89.

chain 1 Y92V Y96V: the response (SQLE/MARCH6 ratio) is 0.27. Consider chain 1 L140A L747A, for which the response (SQLE/MARCH6 ratio) turned out to be 0.5.

In the case of chain 1 Y96V, the response (SQLE/MARCH6 ratio) worked out at 0.24.
